Results on four molecules are retold here after paper doi:10.1101/2025.03.24.644971.

Common to all, as to experiment: EMSA
For orientation: In EMSA bound probe runs differently from free probe, usually more slowly.

In data set [1] the test system is Calb_Rsc1 213-599 BAH mutant (Candida albicans). The following applies: 50 mM Tris-HCl pH 7.5, 100 mM NaCl, 2.5% glycerol, 0.1 mM EDTA, 1 mM DTT.
Data set [2] concerns Calb_Rsc1 213-599 WT (AT-hook-BD2-BAH) (Candida albicans). The following applies: 50 mM Tris-HCl pH 7.5, 100 mM NaCl, 2.5% glycerol, 0.1 mM EDTA, 1 mM DTT.
Another data set addresses Scer_Rsc2 261-636 WT (Saccharomyces cerevisiae, UniProt Q06488 261-636).
Data set [3] has as its target Scer_Rsc2 261-636 basic-surface mutant (Saccharomyces cerevisiae, UniProt Q06488 261-636, K286E;K289E;K290E).
The target in data set [4] is T1, Scer_Rsc1 221-596 basic-surface mutant (Saccharomyces cerevisiae, UniProt P53236 221-596, K246E;R249E;R250E).
T1 sequence: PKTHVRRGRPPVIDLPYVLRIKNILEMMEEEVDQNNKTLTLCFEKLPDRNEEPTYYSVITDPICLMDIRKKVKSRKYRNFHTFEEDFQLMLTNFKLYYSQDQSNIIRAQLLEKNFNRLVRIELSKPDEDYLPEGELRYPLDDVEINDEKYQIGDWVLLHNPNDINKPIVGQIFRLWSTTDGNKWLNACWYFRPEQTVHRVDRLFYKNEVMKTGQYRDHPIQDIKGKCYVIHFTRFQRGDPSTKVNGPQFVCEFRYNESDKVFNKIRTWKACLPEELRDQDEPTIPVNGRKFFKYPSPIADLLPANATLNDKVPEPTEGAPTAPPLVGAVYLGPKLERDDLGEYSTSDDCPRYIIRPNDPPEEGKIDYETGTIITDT

The next data set has as its target T2, Scer_Rsc1 221-596 WT (Saccharomyces cerevisiae, UniProt P53236 221-596).
T2 sequence: T1 sequence with E26K, E29R, E30R

The term Kd denotes the constant that tells how readily two partners part at equilibrium. A lower Kd goes with tighter binding.

Substitutions are numbered along the chain they refer to.

Sequence of Scer_Rsc2 261-636 WT (Q06488 261-636): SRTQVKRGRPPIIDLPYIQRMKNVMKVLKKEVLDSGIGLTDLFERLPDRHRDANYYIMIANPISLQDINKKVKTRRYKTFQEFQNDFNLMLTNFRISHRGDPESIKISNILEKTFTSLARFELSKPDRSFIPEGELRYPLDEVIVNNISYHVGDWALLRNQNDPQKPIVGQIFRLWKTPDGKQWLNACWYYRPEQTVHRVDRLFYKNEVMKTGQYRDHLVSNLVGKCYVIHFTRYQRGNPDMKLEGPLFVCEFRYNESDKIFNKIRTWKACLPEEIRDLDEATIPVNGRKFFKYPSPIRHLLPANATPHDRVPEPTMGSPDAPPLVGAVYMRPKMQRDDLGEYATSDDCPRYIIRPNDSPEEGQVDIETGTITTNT
Sequence of Scer_Rsc2 261-636 basic-surface mutant (Q06488 261-636 K286E/K289E/K290E): as the sequence (Q06488 261-636) above, with K26E, K29E, K30E counted along it

“ATCAGGTCGCTGTTCAATACATGCACAGGATGTATATATCTGACACGTGCCTGGAGACTAGGGAGTAATCCCCTTGGCGGTTAAAACGCGGGGGACAGCGCGTACGTGCGTTTAAGCGGTGCTAGAGCTGTCTACGACCAATTGAGCGGCCTCGGCACCGGGATTCTCCAGGGCGGCCGCGTATAGGGTCCATCGAT (double strand) [197bp 601 DNA]”: the values for the dissociation constant (Kd) in data set [1] and in data set [2] were 11.3 µM and 1.9 µM, respectively.
In turn, “GCATCAGTCTTATAGGAAGAAAAACAAAAAGTCCATCGATCTAG (double strand) [A-rich (polyA) probe]” gave a dissociation constant Kd in data set [2] of 7.4 µM.
Take “ATCGATGTATATATCTGACACGTGCCTGGAGACTAGGGAGTAATCCCCTTGGCGGTTAAAACGCGGGGGACAGCGCGTACGTGCGTTTAAGCGGTGCTAGAGCTGTCTACGACCAATTGAGCGGCCTCGGCACCGGGATTCTGAT (double strand) [145bp 601 DNA]”: the Kd in data set [1] is above 15 µM; in data set [2], 1.9 µM.

B1: A-rich (polyA) probe (dsDNA)
DNA 1: GCATCAGTCTTATAGGAAGAAAAACAAAAAGTCCATCGATCTAG
DNA 2: CTAGATCGATGGACTTTTTGTTTTTCTTCCTATAAGACTGATGC
For B1, the values for the Kd with Scer_Rsc2 261-636 WT and with Scer_Rsc1 221-596 WT were 2.9 µM and 3.7 µM, respectively. Also, the binding result in data set [3] and in data set [4] was “no binding” in each case.
